Test results taken from article PMC2248197.
Several values for one entry are separate records, joined by “and”; a condition that tells them apart may be missing. Equal entries are not always repeated.

Molecular target: Xop411 p09, major capsid subunit (major coat protein) (Xanthomonas oryzae phage Xop411)
Experiment: SDS-PAGE of virion proteins with LC-MS/MS of the bands

With “Xop411 p09, major capsid subunit (major coat protein) (natural protein)” the stoichiometry N was 2 subunits and 6 subunits.
